Laboratory results taken from IntAct's records for PubMed 11571280.

B1: Polycomb protein Pcl (Drosophila melanogaster (Fruit fly)), Q24459 (parent)
chain: MMNNHFHLQHDHPPQNVAHPFMQQPSTAVPSAPPATYGYLAQPAGQQPQWMTTTYQILPPSVGPATVAKRYYATTGPQTTHPTHPSTIQITNSFAQQSTPPKQQAATSCSPFKANNIRIISTAPSVYSLNKPPQEAHSTYAPVQSYYLPSGGGQTAGQINLLAASGTGKQLQPPPLVPVTNSTSPPSTVVLDRINICINNHYTETPTSLSSSLTTAQQPSPIIPAIQHKAILPLIDSSTADSSSCSSSSVSSSSYSGTATTSAAVVIVDEPDSTTTTPQTPPTTPEAMSSPGKSSPSPPLLATQSLLKGVNSMKPSFKTVEAAPPTPPTPPSPPPPPPAPPVAAPSPAVTYALQEDVFIKCNDGRFYLGTIIDQTSDQYLIRFDDQSEQWCEPDKLRKLGGGSSITAGGGGASTTESTNTSPSGPMCVACKRSDIEDVVEICERCGRGYHRGCTVEIVTGSGIWSCKRCAKPMKMQQPVSHKITKPAGICRQLPYHADKLSWDEKHRVNEEQIYCYCGKPGKFDHNMLQCCKCRNWFHTQCMQNFKKKLLRGDMFFVFCCTVCNNGIEFVRRMQIEWVDVLHIALYNLRKHQHQKYHHLLNDIWPFILEQRHQLPICEKWRTLPETALMERLKQTLKDYSDRFVCGREFKRAPAFYALRHSGPPHIPKVFLEPHEELSDELLEKRFKLMLMPEEPDEGANELPKRVPKDVYEFNTDEDDPVETSEDEIPIKQIIEKAKKQAAQKADKHDELPLKPDLADDNANDGDPGKLPAPIPPLLDANSSRKRKAFRLSKRYDNSRNHCDLSSDENSSSSRGTSSLDLIIPPPVNFLGRNNPFLMATPKKASQGRSISVGTGVGVNGIINSIFKLKGTSKEQPRMVRTIKRRLSAKDITIGPNQEVRRRRTRRLTTAIEVISTTTINPIPSHYLPIYAKDLQPPAPPMGKPTHGRLLRQRPQKQSPSQSRRNSTSSTATSSSSNGIGAPGHSMLDLKQSVNKYFGGAMNRIDAGEPFAIRAKRRMGNGQVQYLVEWGGDTATTAIGLLGN

Variants of: B1
Details: with ez_drome E(z)

effect of a mutation on the interaction	Variant
decreasing interaction	C517S
decreasing interaction	C517A
decreasing interaction	C430S
decreasing interaction	C430A
